Laboratory results from patent US20110020347A1.

Biological target: mouse CXCL14 (R&D Systems) (mouse) (UniProt Q9WUQ5)
Test: cell-based or functional assay

Sequence of UniProt Q9WUQ5 (Q9WUQ5 23-99): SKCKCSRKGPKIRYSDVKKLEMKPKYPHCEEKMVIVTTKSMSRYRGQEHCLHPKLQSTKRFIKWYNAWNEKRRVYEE

- inhibition of attraction (chemotaxis) of forskolin-stimulated C2C12 cells by mouse CXCL14, antibody at 10 µg/ml, CXCL14 at 100 nM: 54%
Substance: rat anti-mouse CXCL14 monoclonal antibody (MAB730, R&D Systems)
